Target: T1, HLA-A*02:01 (human)
T1 construct: complexes captured on streptavidin plates and detected with anti-b2m; also called peptide-receptive MHC molecules
Assay: UV-exchange MHC ELISA; ++ = yield >=20%
Source text: Candidate peptides for T cell based therapies according to the present invention were further tested for their MHC binding capacity (affinity). The individual peptide-MHC complexes were produced by UV-ligand exchange, where a UV-sensitive peptide is cleaved upon UV-irradiation, and exchanged with the peptide of interest as analyzed. Only peptide candidates that can effectively bind and stabilize the peptide-receptive MHC molecules prevent dissociation of the MHC complexes. To determine the yield of the exchange reaction, an ELISA was performed based on the detection of the light chain (β2m) of stabilized MHC complexes. The assay was performed as generally described in Rodenko et al. (Rodenko et al., 2006).
96 well MAXISorp plates (NUNC) were coated over night with 2 ug/ml streptavidin in PBS at room temperature, washed 4× and blocked for 1 h at 37° C. in 2% BSA containing blocking buffer. Refolded HLA-A*02:01/MLA-001 monomers served as standards, covering the range of 15-500 ng/ml. Peptide-MHC monomers of the UV-exchange reaction were diluted 100 fold in blocking buffer. Samples were incubated for 1 h at 37° C., washed four times, incubated with 2 ug/ml HRP conjugated anti-β2m for 1 h at 37° C., washed again and detected with TMB solution that is stopped with […]. Absorption was measured at 450 nm. […]

ALLNAILHSA [ALLNAILHSA (SEQ ID NO: 132)] was tested, and the peptide exchange yield was 20 to 50%.
